Results reported in publication PMC2790002.

Substrate: CCCC(=O)SCC[N+](C)(C)C
Experiment: purified protein
Type: biochemical, Homo sapiens
Conditions: 24 °C, 317 pM enzyme, 0.1 mM DTNB, 0.005-3 mM substrate

B1: human butyrylcholinesterase (Homo sapiens) (protein)
chain: EDDIIIATKNGKVRGMNLTVFGGTVTAFLGIPYAQPPLGRLRFKKPQSLTKWSDIWNATKYANSCCQNIDQSFPGFHGSEMWNPNTDLSEDCLYLNVWIPAPKPKNATVLIWIYGGGFQTGTSSLHVYDGKFLARVERVIVVSMNYRVGALGFLALPGNPEAPGNMGLFDQQLALQWVQKNIAAFGGNPKSVTLFGESAGAASVSLHLLSPGSHSLFTRAILQSGSFNAPWAVTSLYEARNRTLNLAKLTGCSRENETEIIKCLRNKDPQEILLNEAFVVPYGTPLSVNFGPTVDGDFLTDMPDILLELGQFKKTQILVGVNKDEGTAFLVYGAPGFSKDNNSIITRKEFQEGLKIFFPGVSEFGKESILFHYTDWVDDQRPENYREALGDVVGDYNFICPALEFTKKFSEWGNNAFFYYFEHRSSKLPWPEWMGVMHGYEIEFVFGLPLERRDNYTKAEEILSRSIVKRWANFAKYGNPNETQNNSTSWPVFKSTEQKYLTLNTESTRIMTKLRAQQCRFWTSFFPKVLEMTGNIDEAEWEWKAGFHRWNNYMMDWKNQFNDYTSKKESCVGL
Km: 100 µM
